Sequences and labels used below:
B1: Far upstream element-binding protein 1, residues 98 to 169; numbered along this chain, Q96AE4 (parent)
chain: RSVMTEEYKVPDGMVGFIIGRGGEQISRIQQESGCKIQIAPDSGGLPERSCMLTGTPESVQSAKRLLDQIVE

± gives the uncertainty stated by the source.

The variants in the data set derive from B1. The data set can be described thus: abundance fitness (aPCA) (normalised: wild type 0, dead -1); higher = more abundant; growth selection in yeast, the domain comes from the species named. The settings on record: Homo sapiens.
As for RSVMTEEYKVPDGMVGFIIGRGGEQISRIQQEAGCKIQIAPDSGGLPERSCMLTGTPESVQSAKRLLDQIVE [S33A], the abundance fitness is -0.068 ± 0.027. Take RSVMTEEYKVPDGMVGFIIGRGGEQISRIQQEHGCKIQIAPDSGGLPERSCMLTGTPESVQSAKRLLDQIVE [S33H]: the abundance fitness was -0.308 ± 0.046.

Regarding RSVMTEEYKVPDGMVGFIIGRGGEQISRIQQEFGCKIQIAPDSGGLPERSCMLTGTPESVQSAKRLLDQIVE [S33F], the abundance fitness was -0.219 ± 0.054. As for RSVMTEEYKVPDGMVGFIIGRGGEQISRIQQEGGCKIQIAPDSGGLPERSCMLTGTPESVQSAKRLLDQIVE [S33G], the abundance fitness is -0.522 ± 0.026. With RSVMTEEYKVPDGMVGFIIGRGGEQISRIQQEPGCKIQIAPDSGGLPERSCMLTGTPESVQSAKRLLDQIVE [S33P], the abundance fitness was -0.865 ± 0.051. For the variant RSVMTEEYKVPDGMVGFIIGRGGEQISRIQQECGCKIQIAPDSGGLPERSCMLTGTPESVQSAKRLLDQIVE [S33C], the abundance fitness was -0.158 ± 0.037.

On to RSVMTEEYKVPDGMVGFIIGRGGEQISRIQQENGCKIQIAPDSGGLPERSCMLTGTPESVQSAKRLLDQIVE [S33N], for which the abundance fitness was -0.534 ± 0.059. As to RSVMTEEYKVPDGMVGFIIGRGGEQISRIQQEDGCKIQIAPDSGGLPERSCMLTGTPESVQSAKRLLDQIVE [S33D], the abundance fitness is -0.868 ± 0.063.

For RSVMTEEYKVPDGMVGFIIGRGGEQISRIQQELGCKIQIAPDSGGLPERSCMLTGTPESVQSAKRLLDQIVE [S33L], the abundance fitness is -0.325 ± 0.028. With RSVMTEEYKVPDGMVGFIIGRGGEQISRIQQEMGCKIQIAPDSGGLPERSCMLTGTPESVQSAKRLLDQIVE [S33M], the abundance fitness is -0.414 ± 0.036. For RSVMTEEYKVPDGMVGFIIGRGGEQISRIQQEIGCKIQIAPDSGGLPERSCMLTGTPESVQSAKRLLDQIVE [S33I] the value was -0.313 ± 0.054; for RSVMTEEYKVPDGMVGFIIGRGGEQISRIQQEQGCKIQIAPDSGGLPERSCMLTGTPESVQSAKRLLDQIVE [S33Q], -0.431 ± 0.037. Next, RSVMTEEYKVPDGMVGFIIGRGGEQISRIQQDSGCKIQIAPDSGGLPERSCMLTGTPESVQSAKRLLDQIVE [E32D]: -0.076 ± 0.044; RSVMTEEYKVPDGMVGFIIGRGGEQISRIQQFSGCKIQIAPDSGGLPERSCMLTGTPESVQSAKRLLDQIVE [E32F]: -0.208 ± 0.051; RSVMTEEYKVPDGMVGFIIGRGGEQISRIQQCSGCKIQIAPDSGGLPERSCMLTGTPESVQSAKRLLDQIVE [E32C]: -0.096 ± 0.046.

As to RSVMTEEYKVPDGMVGFIIGRGGEQISRIQQLSGCKIQIAPDSGGLPERSCMLTGTPESVQSAKRLLDQIVE [E32L], the abundance fitness is -0.092 ± 0.028.

Take RSVMTEEYKVPDGMVGFIIGRGGEQISRIQQPSGCKIQIAPDSGGLPERSCMLTGTPESVQSAKRLLDQIVE [E32P]: the abundance fitness was -0.796 ± 0.053. Take RSVMTEEYKVPDGMVGFIIGRGGEQISRIQQASGCKIQIAPDSGGLPERSCMLTGTPESVQSAKRLLDQIVE [E32A]: the abundance fitness is -0.071 ± 0.033. As for RSVMTEEYKVPDGMVGFIIGRGGEQISRIQQNSGCKIQIAPDSGGLPERSCMLTGTPESVQSAKRLLDQIVE [E32N], the abundance fitness was -0.12 ± 0.062. RSVMTEEYKVPDGMVGFIIGRGGEQISRIQQGSGCKIQIAPDSGGLPERSCMLTGTPESVQSAKRLLDQIVE [E32G]: the abundance fitness was -0.166 ± 0.026. Next, RSVMTEEYKVPDGMVGFIIGRGGEQISRIQQVSGCKIQIAPDSGGLPERSCMLTGTPESVQSAKRLLDQIVE [E32V]: -0.05 ± 0.029.

As for RSVMTEEYKVPDGMVGFIIGRGGEQISRIQQYSGCKIQIAPDSGGLPERSCMLTGTPESVQSAKRLLDQIVE [E32Y], the abundance fitness was -0.235 ± 0.048. For RSVMTEEYKVPDGMVGFIIGRGGEQISRIQQMSGCKIQIAPDSGGLPERSCMLTGTPESVQSAKRLLDQIVE [E32M] the value was -0.067 ± 0.038; for RSVMTEEYKVPDGMVGFIIGRGGEQISRIQQQSGCKIQIAPDSGGLPERSCMLTGTPESVQSAKRLLDQIVE [E32Q], -0.059 ± 0.035; for RSVMTEEYKVPDGMVGFIIGRGGEQISRIQQKSGCKIQIAPDSGGLPERSCMLTGTPESVQSAKRLLDQIVE [E32K], -0.077 ± 0.04. As for RSVMTEEYKVPDGMVGFIIGRGGEQISRIQHESGCKIQIAPDSGGLPERSCMLTGTPESVQSAKRLLDQIVE [Q31H], the abundance fitness was -0.06 ± 0.047. RSVMTEEYKVPDGMVGFIIGRGGEQISRIQNESGCKIQIAPDSGGLPERSCMLTGTPESVQSAKRLLDQIVE [Q31N]: the abundance fitness is -0.013 ± 0.05. Consider RSVMTEEYKVPDGMVGFIIGRGGEQISRIQEESGCKIQIAPDSGGLPERSCMLTGTPESVQSAKRLLDQIVE [Q31E], for which the abundance fitness was found to be 0.028 ± 0.035.

On to RSVMTEEYKVPDGMVGFIIGRGGEQISRIQGESGCKIQIAPDSGGLPERSCMLTGTPESVQSAKRLLDQIVE [Q31G], for which the abundance fitness is -0.089 ± 0.026. Turning to RSVMTEEYKVPDGMVGFIIGRGGEQISRIQMESGCKIQIAPDSGGLPERSCMLTGTPESVQSAKRLLDQIVE [Q31M], the abundance fitness is -0.061 ± 0.04. Regarding RSVMTEEYKVPDGMVGFIIGRGGEQISRIQFESGCKIQIAPDSGGLPERSCMLTGTPESVQSAKRLLDQIVE [Q31F], the abundance fitness is -0.089 ± 0.047.

As for RSVMTEEYKVPDGMVGFIIGRGGEQISRIQSESGCKIQIAPDSGGLPERSCMLTGTPESVQSAKRLLDQIVE [Q31S], the abundance fitness is -0.025 ± 0.029.

For RSVMTEEYKVPDGMVGFIIGRGGEQISRIQTESGCKIQIAPDSGGLPERSCMLTGTPESVQSAKRLLDQIVE [Q31T], the abundance fitness was -0.024 ± 0.035. As to RSVMTEEYKVPDGMVGFIIGRGGEQISRIQLESGCKIQIAPDSGGLPERSCMLTGTPESVQSAKRLLDQIVE [Q31L], the abundance fitness is -0.043 ± 0.028.

In the case of RSVMTEEYKVPDGMVGFIIGRGGEQISRIQRESGCKIQIAPDSGGLPERSCMLTGTPESVQSAKRLLDQIVE [Q31R], the abundance fitness was -0.014 ± 0.024.

As for RSVMTEEYKVPDGMVGFIIGRGGEQISRIQYESGCKIQIAPDSGGLPERSCMLTGTPESVQSAKRLLDQIVE [Q31Y], the abundance fitness was -0.09 ± 0.055. For RSVMTEEYKVPDGMVGFIIGRGGEQISRIQWESGCKIQIAPDSGGLPERSCMLTGTPESVQSAKRLLDQIVE [Q31W], the abundance fitness was -0.153 ± 0.034. Next, RSVMTEEYKVPDGMVGFIIGRGGEQISRIQIESGCKIQIAPDSGGLPERSCMLTGTPESVQSAKRLLDQIVE [Q31I]: -0.053 ± 0.048.

For the origin of these results see the Human Domainome abundance scans (Beltran et al. 2025).
